Assay results from the RNAGym collection of RNA variant scans (doi:10.7554/elife.80360).

B1: CPEB3 Ribozyme (parent)
chain: GGGGGCCACAGCAGAAGCGUUCACGUCGCGGCCCCUGUCAGAUUCUGGUGAAUCUGCGAAUUCUGCUGU

Variants of: B1
Assay: self-cleavage, relative activity (ratio to wild type); higher = more cleavage; co-transcriptional

Row | Variant | self-cleavage
1 | AGGGGCCACAGCAGAAGCGUUCACGUCGCGCCCCCUGUCAGAUUCUGGUGAAUCUGCGAAUUCUGCUGU [G1A G31C] | 0.0308
2 | CGGGGCCCCAGCAGAAGCGUUCACGUCGCGGCCCCUGUCAGAUUCUGGUGAAUCUGCGAAUUCUGCUGU [G1C A8C] | 0.221
3 | CGGGGCCUCAGCAGAAGCGUUCACGUCGCGGCCCCUGUCAGAUUCUGGUGAAUCUGCGAAUUCUGCUGU [G1C A8U] | 0.227
4 | CGGGGCCACAGCAGAAGCGUUCACGUCGCGGCCCCUGUCAGAUUCUGGUGACUCUGCGAAUUCUGCUGU [G1C A52C] | 0.2
5 | CGGGGCCACAGCAGAAGCGUUCACGUCGCGGCCCCUGUCAGAUUCUGGUGAGUCUGCGAAUUCUGCUGU [G1C A52G] | 0.24
6 | AGGGGCCACAGCAGAAGCGUUCACGUCGCGGCCCCUGUCAGAUUCUGGUGAAUCUACGAAUUCUGCUGU [G1A G56A] | 0.0858
7 | AGGGGCCACAGCAGAAGCGUUCACGUCGCGGCCCCUGUCAGAUUCUGGUGAAUCUCCGAAUUCUGCUGU [G1A G56C] | 0.0841
8 | AGGGGCCACAGCAGAAGCGUUCACGUCGCGGCCCCUGUCAGAUUCUGGUGAAUCUUCGAAUUCUGCUGU [G1A G56U] | 0.103
9 | CGGGGCCACAGCAGAAGCGUUCACGUCGCGGCCCCUGUCAGAUUCUGGUGUAUCUGCGAAUUCUGCUGU [G1C A51U] | 0.192
10 | CGGGGCCACAGCAGAAGCGUUCACGUCGCGGCCCCUGUCAGAUUCUGGUGCAUCUGCGAAUUCUGCUGU [G1C A51C] | 0.149
11 | AGGGGCCACAGCAGAAGCGUUCACGUCGCGGCCCCUGUCAGAUUCUGGGGAAUCUGCGAAUUCUGCUGU [G1A U49G] | 0.13
12 | AGGGGCCACAGCAGAAGCGUUCACGUCGCGGCCCCUGUCAGAUUCUGGAGAAUCUGCGAAUUCUGCUGU [G1A U49A] | 0.075
13 | AGGGGCCACAGCAGAAGCGUUCACGUCGCGGCCCCUGUCAGAUUCUGGUGAAUCUGCGAAUUCAGCUGU [G1A U64A] | 0.134
14 | AGGGGCCACAGCAGAAGCGUUCACGUCGCGGCCCCUGUCAGAUUCUGGUGAAUCUGCGAAUUCGGCUGU [G1A U64G] | 0.0694
15 | AGGGGCCACAGCAGAAGCGUUCACGUCGCGGCCCCUGUCAGAUUCUGGUGAAUCUGCAAAUUCUGCUGU [G1A G58A] | 0.0724
16 | AGGGGCCACAGCAGAAGCGUUCACGUCGCGGCCCCUGUCAGAUUCUGGUGAAUCUGCCAAUUCUGCUGU [G1A G58C] | 0.126
17 | AGGGGCCACAGCAGAAGCGUUCACGUCGCGGCCCCUGUCAGAUUCUGAUGAAUCUGCGAAUUCUGCUGU [G1A G48A] | 0.0895
18 | AGGGGCCACAGCAGAAGCGUUCACGUCGCGGCCCCUGUCAGAUUCUGUUGAAUCUGCGAAUUCUGCUGU [G1A G48U] | 0.045
19 | AGGGGCCACAGCAGAAGCGUUCACGUCUCGGCCCCUGUCAGAUUCUGGUGAAUCUGCGAAUUCUGCUGU [G1A G28U] | 0.0362
20 | CGGGGCCACAGCAGCAGCGUUCACGUCGCGGCCCCUGUCAGAUUCUGGUGAAUCUGCGAAUUCUGCUGU [G1C A15C] | 0.266

Row | Variant | self-cleavage
21 | CGGGGCCACAGCAGGAGCGUUCACGUCGCGGCCCCUGUCAGAUUCUGGUGAAUCUGCGAAUUCUGCUGU [G1C A15G] | 0.228
22 | AGGGGCCACAGCAGAAGCGUUCACGUCGCGGCCCCUGCCAGAUUCUGGUGAAUCUGCGAAUUCUGCUGU [G1A U38C] | 0.0492
23 | CGGGGCCACAGCAGAAGCGUUCACGUCGCGGCCCCUGUCGGAUUCUGGUGAAUCUGCGAAUUCUGCUGU [G1C A40G] | 0.268
24 | CGGGGCCACAGCAGAAGCGUUCACGUCGCGGCCCCUGUCCGAUUCUGGUGAAUCUGCGAAUUCUGCUGU [G1C A40C] | 0.231
25 | AGGGGCCACAGCAGAAGCGUUCACGUCGCGGCCCCUGUCAGAUUCUGGUAAAUCUGCGAAUUCUGCUGU [G1A G50A] | 0.114
26 | AGGGGCCACAGCAGAAGCGUUCACGUCGCGGCCCCUGUCAGAUUCUGGUUAAUCUGCGAAUUCUGCUGU [G1A G50U] | 0.0729
27 | AGGGGCCACAGCAGAAGCGUUCACGUCGCGGCCCCUCUCAGAUUCUGGUGAAUCUGCGAAUUCUGCUGU [G1A G37C] | 0.0318
28 | AGGGGCCACAGCAGAAGCGUUCACGUCGCGGCCCCUUUCAGAUUCUGGUGAAUCUGCGAAUUCUGCUGU [G1A G37U] | 0.104
29 | AGGGGCCACAGCAGAAGCGUUCACGUCGCGGCCCCUGUCAGAUUCUGGUGAAUCUGCGAAUUCUUCUGU [G1A G65U] | 0.106
30 | AGGGGCCACAGCAGAAGCGUUCACGUCGCGGCCCCUGUCAGAUUCUGGUGAAUCUGCGAAUUCUACUGU [G1A G65A] | 0.0429
31 | AGGGGCCACAGCAGAAGCGUUCACGUCGCGGCCCCUGUCAGAUUCUGGUGAAUCUGCGAAUUCUCCUGU [G1A G65C] | 0.0479
32 | CGGGGCCACAGCAGAAGCGUUCCCGUCGCGGCCCCUGUCAGAUUCUGGUGAAUCUGCGAAUUCUGCUGU [G1C A23C] | 0.25
33 | CGGGGCCACAGCAGAAGCGUUCGCGUCGCGGCCCCUGUCAGAUUCUGGUGAAUCUGCGAAUUCUGCUGU [G1C A23G] | 0.149
34 | CGGGGCCACAGCAGAAGCGUUCUCGUCGCGGCCCCUGUCAGAUUCUGGUGAAUCUGCGAAUUCUGCUGU [G1C A23U] | 0.222
35 | AGGGGCCACAGCAGAAGCGUUCACGUCGCGGCCCCUGUCACAUUCUGGUGAAUCUGCGAAUUCUGCUGU [G1A G41C] | 0.0331
36 | AGGGGCCACAGCAGAAGCGUUCACGUCGCGGCCCCUGUCAUAUUCUGGUGAAUCUGCGAAUUCUGCUGU [G1A G41U] | 0.0947
37 | AGGGGCCACAGCAGAAGCGUUCACGUCGCGGCCCCUGUCAGAUUCUGGUGAAUCUGCGAAUUCUGCCGU [G1A U67C] | 0.121
38 | AGGGGCCACAGCAGAAGCGUUCACGUCGCGGCCCCUGUCAGAUUCUGGUGAAUCUGCGAACUCUGCUGU [G1A U61C] | 0.0531
39 | CGGGGCCACGGCAGAAGCGUUCACGUCGCGGCCCCUGUCAGAUUCUGGUGAAUCUGCGAAUUCUGCUGU [G1C A10G] | 0.21
